Laboratory results published in EP4722245A1, “ANTIBODY TARGETING ITGA2, ANTIBODY DRUG CONJUGATE THEREOF, AND USE” (Foreseen Technology (Beijing) Co., Ltd., priority 2023, dated 2024).
Changes are numbered by the printed parent chain.

B1: Humanized antibody FS002-A153-H5L2 (antibody, human IgG1, kappa, V domains shown)
VH: QVQLVQSGAEVKKPGASVKVSCKASGYTFTDYEMHWVRQAPGQGLEWMGTIDPETGGTTYAQKFQGRVTMTADTSISTAYMELSRLRSDDTAVYYCARSGYYVSSYESYAMDYWGQGTTVTVSS
VL: DIVMTQSPDSLAVSLGERVTMNCKSSQSLLNSGNQKNYLTWYQQKPGQPPKLLIYGASTRESGVPDRFSGSGSGTDFTLTISSLQAEDVAVYYCQNDYSYPFTFGGGTKLEIKR
notes: Humanized IgG1 kappa
B2: Humanized antibody FS002-A153-H5L5 (antibody, human IgG1, kappa, V domains shown)
VH: B1 VH
VL: EIVMTQSPPTLSLSPGERVTMSCRSSQSLLNSGNQKNYLTWYQQKPGQAPRLLIYGASTRESGVPARFSGSGSGTDFTLTISSLQPEDFAVYYCQNDYSYPFTFGGGTKLEIKR
notes: Humanized IgG1 kappa
B3: Humanized antibody FS002-A103-H4L3 (antibody, human IgG1, kappa, V domains shown)
VH: B1 VH with T50V, A61N, M70L, A97S
VL: EIVMTQSPPTMSMSPGERVTLSCKASENVGTYVSWYQQKPGQAPRLLIYGASTRESGVPARFSGSGSGTDFTLTISSLQPEDFAVYYCQNDYSYPFTFGGGTKLEIKR
notes: Humanized IgG1 kappa
B4: Humanized antibody FS002-A208-H4L4 (antibody, human IgG1, kappa, V domains shown)
VH: B1 VH with M34I, M48I, T50A, T59N, A61N, M70L, A97S, S105N
VL: DIQMTQSPSSLSASVGDRVTITCRASQNVGTNVAWYQQKPEKAPKSLIYSASYRFSGVPSRFSGSGSGTDFTLTISSLQPEDFATYYCQQYNIYPLSFGGGTKLELKR
notes: Humanized IgG1 kappa
B5: Humanized antibody FS002-A226-H4L3 (antibody, human IgG1, kappa, V domains shown)
VH: B1 VH with M34I, M48I, T50A, T59N, A61N, M70L, A97S, S105N
VL: DIQITQSPSSMSASVGDRVTITCKASQDIKSYLSWYQQKPGKAPKLLIYDTSNLASGVPSRFSGSGSGTDYTLTISSLQPEDFATYYCQQWSSYPFTFGGGTKLEIKR
notes: Humanized IgG1 kappa
B6: Humanized antibody FS002-A153-H5L4 (antibody, human IgG1, kappa, V domains shown)
VH: B1 VH
VL: B2 VL with E1D, L13V, R24K, A66D
notes: Humanized IgG1 kappa
B7: Humanized antibody FS002-A208-H3L4 (antibody, human IgG1, kappa, V domains shown)
VH: QVQLVQSGAEVKKPGASVKVSCKASGYTFTDYEIHWVRQAPGQGLEWIGAIDPETGGTNYNQKFNDRVTLTADKSISTAYMELSRLRSDDTAVYYCSRSGYYVSNYESYAMDYWGQGTTVTVSS
VL: B4 VL
notes: Humanized IgG1 kappa
B8: Humanized antibody FS002-A153-H5L1 (antibody, human IgG1, kappa, V domains shown)
VH: B1 VH
VL: B1 VL with N22S, S69T
notes: Humanized IgG1 kappa
B9: Humanized antibody FS002-A226-H5L4 (antibody, human IgG1, kappa, V domains shown)
VH: B1 VH with M34I, T50A, T59N, A97S, S105N
VL: B5 VL with I4L, M11L, K24R, Y71F
notes: Humanized IgG1 kappa
B10: Humanized antibody FS002-A226-H5L3 (antibody, human IgG1, kappa, V domains shown)
VH: B1 VH with M34I, T50A, T59N, A97S, S105N
VL: B5 VL
notes: Humanized IgG1 kappa
B11: Humanized antibody FS002-A208-H5L4 (antibody, human IgG1, kappa, V domains shown)
VH: B1 VH with M34I, T50A, T59N, A97S, S105N
VL: B4 VL
notes: Humanized IgG1 kappa
B12: Humanized antibody FS002-A226-H3L4 (antibody, human IgG1, kappa, V domains shown)
VH: B7 VH with V2L, K74T
VL: B5 VL with I4L, M11L, K24R, Y71F
notes: Humanized IgG1 kappa
B13: Humanized antibody FS002-A153-H3L3 (antibody, human IgG1, kappa, V domains shown)
VH: B1 VH with V20L, M48I, A61N, M70L, A97S
VL: B1 VL with V19A, M21I
notes: Humanized IgG1 kappa
B14: Humanized antibody FS002-A153-H4L2 (antibody, human IgG1, kappa, V domains shown)
VH: B1 VH with M70L, A97S
VL: B1 VL
notes: Humanized IgG1 kappa
B15: Humanized antibody FS002-A103-H4L2 (antibody, human IgG1, kappa, V domains shown)
VH: B1 VH with T50V, A61N, M70L, A97S
VL: B3 VL with P9K, A60D
notes: Humanized IgG1 kappa
B16: Chimeric mouse antibody FS002-A103 (antibody, human IgG1, kappa, V domains shown)
VH: QVQLQQSGAELVRPGASVTLSCKASGYTFTDYEMHWVKQTPVHGLEWIGVIDPETGGTTYNQKFNDKATLTADKSSSTAYMDLRSLTSEDSAVYYCSRSGYYVSSYESYAMDYWGQGTSVTVSS
VL: DIVMTQSPKSMSMSVGERVTLSCKASENVGTYVSWYQQKPEQSPKLLIYGASTRESGVPDRFTGSGSGTDFTLTISSVQAEDLAVYYCQNDYSYPFTFGSGTKLEIKR
notes: Chimeric; expressed in ExpiCHO-S
B17: Chimeric mouse antibody FS002-A153 (antibody, human IgG1, kappa, V domains shown)
VH: B16 VH with V50T
VL: B1 VL with D9S, A12T, S14T, L15A, R18K, N22S, S69T, L84V, V89L, G106S
notes: Chimeric
B18: Chimeric mouse antibody FS002-A226 (antibody, human IgG1, kappa, V domains shown)
VH: B16 VH with V2L, M34I, V50A, T59N, S105N
VL: DIKITQSPSSMYASLGERVTITCKASQDIKSYLSWYQQKPGSSPRLLIYDTSNLASGVPVRFSGRGSGTSYSLTISRMEAEDAATYYCQQWSSYPFTFGSGTKLEIKR
notes: Chimeric
B19: Chimeric mouse antibody FS002-A208 (antibody, human IgG1, kappa, V domains shown)
VH: B16 VH with M34I, V50A, T59N, S105N
VL: DIVMTQSQKFMSTSVGDRVSVTCKASQNVGTNVAWYQQKPGQSPKTLIYSASYRFSGVPDRFTGSGSGTDFTLTINNVQSEDLADYFCQQYNIYPLSFGAGTKLELKR
notes: Chimeric
B20: Vatelizumab (antibody, V domains shown)
VH: QVQLQESGPGLVKPSETLSLTCTVSGFSLTNYGIHWIRQPPGKGLEWLGVIWARGFTNYNSALMSRLTISKDNSKNQVSLKLSSVTAADTAVYYCARANDGVYYAMDYWGQGTLVTVSS
VL: DFVMTQSPAFLSVTPGEKVTITCSAQSSVNYIHWYQQKPDQAPKKLIYDTSKLASGVPSRFSGSGSGTDYTFTISSLEAEDAATYYCQQWTTNPLTFGQGTKVEIK

target: T1, ITGA2 protein on the surface of human tumor cells (human, UniProt P17301 30-1181); test: flow cytometry on HuCCT1 cells
T1 construct: whole, on cells; Endogenously expressed; the cell line is named under assay or readout; also called Integrin alpha-2; ITGA2-positive HuCCT1 cells
T1 sequence (looked up): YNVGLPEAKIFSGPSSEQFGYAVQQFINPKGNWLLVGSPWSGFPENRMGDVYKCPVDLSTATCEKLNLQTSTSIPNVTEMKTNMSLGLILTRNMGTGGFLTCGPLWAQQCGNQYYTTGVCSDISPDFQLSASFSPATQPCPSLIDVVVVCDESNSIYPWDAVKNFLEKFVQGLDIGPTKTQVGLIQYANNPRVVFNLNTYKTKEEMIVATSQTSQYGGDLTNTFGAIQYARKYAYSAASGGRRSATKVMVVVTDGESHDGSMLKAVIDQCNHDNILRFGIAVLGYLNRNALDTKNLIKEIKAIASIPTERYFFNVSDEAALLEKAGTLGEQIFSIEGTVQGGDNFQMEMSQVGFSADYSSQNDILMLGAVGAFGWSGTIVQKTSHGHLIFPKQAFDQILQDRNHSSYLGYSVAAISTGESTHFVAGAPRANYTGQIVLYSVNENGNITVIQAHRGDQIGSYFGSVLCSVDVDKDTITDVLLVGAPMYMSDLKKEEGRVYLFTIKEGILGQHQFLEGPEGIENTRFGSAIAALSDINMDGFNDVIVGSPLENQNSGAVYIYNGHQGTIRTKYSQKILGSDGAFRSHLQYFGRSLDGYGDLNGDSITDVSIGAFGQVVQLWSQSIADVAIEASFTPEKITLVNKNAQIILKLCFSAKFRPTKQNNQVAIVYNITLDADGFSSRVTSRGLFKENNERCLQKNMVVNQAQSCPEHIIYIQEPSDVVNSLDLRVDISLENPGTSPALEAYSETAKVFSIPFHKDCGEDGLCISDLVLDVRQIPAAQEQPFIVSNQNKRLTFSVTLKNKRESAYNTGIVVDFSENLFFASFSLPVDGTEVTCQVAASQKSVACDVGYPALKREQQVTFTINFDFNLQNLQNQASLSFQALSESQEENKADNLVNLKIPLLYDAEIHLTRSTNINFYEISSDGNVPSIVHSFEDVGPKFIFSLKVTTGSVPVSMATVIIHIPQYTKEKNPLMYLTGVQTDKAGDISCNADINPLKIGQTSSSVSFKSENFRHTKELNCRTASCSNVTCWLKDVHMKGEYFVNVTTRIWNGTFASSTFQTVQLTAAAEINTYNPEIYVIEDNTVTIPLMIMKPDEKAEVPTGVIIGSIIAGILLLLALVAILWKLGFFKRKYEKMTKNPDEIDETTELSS

Binder | EC50 [nM]
B1 | 0.22
B2 | 0.48
B3 | 0.08
B4 | 0.6
B5 | 0.533
B6 | 0.487
B7 | 0.587
B8 | 0.58
B9 | 0.647
B10 | 0.58
B11 | 0.627
B12 | 0.28
B13 | 0.42
B14 | 0.313
B15 | 0.127
B16 | 0.633
B17 | 0.333
B18 | 0.58
B19 | 0.76
B20 | 0.78

target: T2, ITGA2-His (UniProt P17301 30-1132, limits assumed); test: ELISA, plate coated with 2 ug/mL ITGA2-His, anti-human IgG-Fc-HRP detection
T2 construct: Coated on the ELISA plate at 2 ug/mL; whole entry P17301 is named; also called ITGA2 protein; not shown: His tag
T2 sequence (looked up): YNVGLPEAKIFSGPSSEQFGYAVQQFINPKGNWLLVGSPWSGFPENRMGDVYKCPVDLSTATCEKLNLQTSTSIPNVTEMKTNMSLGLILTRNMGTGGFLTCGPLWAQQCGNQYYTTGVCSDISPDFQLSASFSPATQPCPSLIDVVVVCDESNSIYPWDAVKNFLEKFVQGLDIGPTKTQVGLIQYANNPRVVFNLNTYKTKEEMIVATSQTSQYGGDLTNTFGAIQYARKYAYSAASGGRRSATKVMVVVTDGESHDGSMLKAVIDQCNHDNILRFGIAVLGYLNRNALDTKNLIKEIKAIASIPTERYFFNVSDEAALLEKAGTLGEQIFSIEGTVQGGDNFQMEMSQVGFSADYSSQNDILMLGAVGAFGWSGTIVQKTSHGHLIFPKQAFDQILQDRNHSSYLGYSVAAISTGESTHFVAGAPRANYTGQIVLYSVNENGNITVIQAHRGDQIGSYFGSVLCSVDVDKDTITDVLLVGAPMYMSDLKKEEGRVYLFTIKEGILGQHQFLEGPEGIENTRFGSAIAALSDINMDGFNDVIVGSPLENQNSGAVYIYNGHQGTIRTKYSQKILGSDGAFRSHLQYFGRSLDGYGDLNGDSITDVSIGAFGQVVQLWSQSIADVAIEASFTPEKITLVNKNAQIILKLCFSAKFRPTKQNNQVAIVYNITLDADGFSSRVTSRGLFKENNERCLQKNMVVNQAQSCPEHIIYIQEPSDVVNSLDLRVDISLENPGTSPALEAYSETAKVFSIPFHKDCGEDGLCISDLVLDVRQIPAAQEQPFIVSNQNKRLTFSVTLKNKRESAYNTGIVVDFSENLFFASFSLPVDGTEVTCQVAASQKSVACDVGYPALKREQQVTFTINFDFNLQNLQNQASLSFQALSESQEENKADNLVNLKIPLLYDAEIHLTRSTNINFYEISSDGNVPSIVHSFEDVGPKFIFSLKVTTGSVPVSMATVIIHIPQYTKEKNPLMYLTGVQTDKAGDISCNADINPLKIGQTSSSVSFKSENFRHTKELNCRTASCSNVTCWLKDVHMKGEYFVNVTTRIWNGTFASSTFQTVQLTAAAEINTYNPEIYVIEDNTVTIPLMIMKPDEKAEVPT

Binder | EC50 [nM]
B1 | 0.009
B2 | 0.022
B3 | 0.006
B4 | 0.017
B5 | 0.024
B6 | 0.024
B7 | 0.022
B8 | 0.027
B9 | 0.022
B10 | 0.023
B11 | 0.018
B12 | 0.023
B13 | 0.014
B14 | 0.011
B15 | 0.006
B16 | 0.017
B17 | 0.008
B18 | 0.018
B19 | 0.02
B20 | 0.008
